This note sets out measurements from publication PMC7093598.

The target in assay [1] is titin N2A construct(s), number of N2A-Us elements not stated for the experiment (human) (UniProt Q8WZ42).
For assay [2] the target is unchanged. The source holds these as a separate data set.

As to “CARP (Cardiac Ankyrin Repeat Protein) 106-319, N-terminally truncated construct corresponding to the titin-binding region (from UniProt Q15327 106-319) (domain or fragment)”, in assay [1], the unfolding rate constant α0 of the Ig domains in the absence of applied force with CARP, from the Bell fit of the force clamp data turned out to be 0.43 s⁻¹ and the unfolding rate α of the Ig domains with CARP, AFM force clamp at clamp forces of 100-150 pN; value printed at 100 pN (3.2 s^-1 without CARP) is 2.4 s⁻¹. The substance also displayed an increase of the Ig domain unfolding force (F unfold, force peaks 1-4) with CARP, AFM force-extension curves at 400 nm/s in assay [2] of 20 pN.
